The values below come from patent publication US20090226466A1.

Experiment [1] has as its target murine FcγRIII on cells (murine) (UniProt P08508). Put plainly: cell-based or functional assay.
Experiment [2] concerns the target human NKG2D on CHO transfectant cells (human) (UniProt P26718). As to the kind of experiment: flow cytometry on human NKG2D-CHO transfectant cells. For orientation: In flow cytometry, cells or beads pass a laser one at a time.
Experiment [3] has as its target full-length murine NKG2D on cells (murine) (UniProt O54709). Put plainly: flow cytometry on stable mNKG2D transfectant HEK293 cells.
For experiment [4], the target named is soluble form of murine NKG2D representing residues 88-232, N'-FLAG tagged (murine) (UniProt O54709). Put plainly: ELISA, mNKG2D immobilized on plate, goat anti-mouse F(ab')2-HRP detection. A general note: ELISA stands for enzyme-linked immunosorbent assay.
In experiment [5] the target is full-length murine NKG2D on cells (murine) (UniProt O54709). As to the kind of experiment: cell-based or functional assay.
The target is the same in experiment [6]. Put plainly: flow cytometry on NK cells from mouse splenocytes, biotinylated antibody and streptavidin.
Experiment [7] shares this target. As to the kind of experiment: flow cytometry on stable mNKG2D transfectant HEK293 cells, isotype control.

Chain of UniProt P26718 (P26718 whole entry): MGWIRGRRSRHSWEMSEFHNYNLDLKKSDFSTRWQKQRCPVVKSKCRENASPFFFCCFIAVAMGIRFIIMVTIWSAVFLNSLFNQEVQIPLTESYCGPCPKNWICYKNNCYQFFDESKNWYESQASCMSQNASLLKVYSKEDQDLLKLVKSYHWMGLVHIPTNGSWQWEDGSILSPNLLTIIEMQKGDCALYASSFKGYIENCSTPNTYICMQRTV
Chain of UniProt P08508 (P08508 31-261): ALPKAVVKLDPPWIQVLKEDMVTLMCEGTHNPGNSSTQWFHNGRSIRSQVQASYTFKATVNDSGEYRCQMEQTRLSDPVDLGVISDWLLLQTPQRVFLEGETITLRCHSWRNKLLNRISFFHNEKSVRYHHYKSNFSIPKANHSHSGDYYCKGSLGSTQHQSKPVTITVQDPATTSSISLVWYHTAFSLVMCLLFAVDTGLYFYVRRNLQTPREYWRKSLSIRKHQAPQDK

Anti-HER2 (4D5 mIgG2a) (antibody): the killing of BT474 cells by murine DX5+ NK cells (lactate dehydrogenase release), E:T ratio of 50:1, 6.7 nM antibody in experiment [1] stood at 15%.

The EC50 is the concentration needed to bring the measured effect to its halfway point. For the substance “Anti-HER2*-MicB fusion antibody (D265A + N297A) (from UniProt Q29980 16-297)”, the MFI in experiment [2] came out at 61.7 MFI; in experiment [3] it was 11 MFI. Moreover, the EC50 in experiment [4] was 0.3 nM. Moreover, the killing of BT474 cells by murine DX5+ NK cells (lactate dehydrogenase release), E:T ratio of 50:1, 6.7 nM antibody in experiment [5] was determined as 15%.

For the substance Anti-HER2-H60 fusion antibody, the MFI was determined as 100 MFI in experiment [3] and 48.9 MFI in experiment [6]. The substance also showed an EC50 in experiment [4] of 0.2 nM. Moreover, in experiment [5], the killing of BT474 cells by splenic NK cells of murine FcγRIII knockout mice, E:T ratio 20:1 was found to be 10%.

“Anti-HER2-MicB fusion antibody (from UniProt Q29980 16-297)”: the MFI in experiment [2] was 61.7 MFI; in experiment [3], 11 MFI. In experiment [4], this substance yielded an EC50 of 0.3 nM. Further, in experiment [5], the killing of BT474 cells by splenic NK cells of murine FcγRIII knockout mice, E:T ratio 20:1 was 10%.

mouse IgG2a control antibody gave an MFI in experiment [7] of 4 MFI.
